B1: Azoarcus group I ribozyme (parent)
chain: GUGCCUUGCGCCGGGAAACCACGCAAGGGAUGGUGUCAAAUUCGGCGAAACCUAAGCGCCCGCCCGGGCGUAUGGCAACGCCGAGCCAAGCUUCGGCGCCUGCGCCGAUGAAGGUGUAGAGACUAGACGGCACCCACCUAAGGCAAACGCUAUGGUGAAGGCAUAGUCCAGGGAGUGGCGAAAGUCACACAAACCGG

The results in this text go back to the RNAGym collection of RNA variant scans (doi:10.1093/molbev/msab373).

Variants of B1 are the subject of the data set. In words: reverse-splicing fitness (ratio to wild type); higher = more active; in vitro selection; Mg2+ level not given. Summed up:
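An in vitro group I ribozyme library with randomized positions was T7-transcribed and gel-purified. In triplicate, 10 pmol RNA in EPPS pH 7.5 was reacted with 50 pmoles of a 30-nt RNA substrate for 1 h at 37 °C across several added MgCl2 levels (1–48 mM), then stopped with EDTA. Products were reverse transcribed from a substrate-complementary primer, PCR-amplified and sequenced (HiSeq 4000). Fitness is a variant's read proportion after selection over that before, normalised to wild type.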
Turning to C82G A111G A120G A145C C150A C169G U176C, the reverse-splicing fitness is 0.0187.
In the case of C82U A111G A120G A145C C150A C169A U176C it was 0.00481.
For A120U C150U, the reverse-splicing fitness was found to be 0.774.
As to C82G A111G A120C A145C C169G U176G, the reverse-splicing fitness amounted to 0.0055.
In the case of C82A A111U A145U C150G C169A U176C it was 0.0109.
In the case of C82U A145G C150A U176C it was 0.0964; in that of C82G A120U A145G C150G C169G U176A, 0.00901; in that of C82A A111C A120G A145G C150A C169G U176C, 0.0274.
In the case of A111U A145G C150A C169U U176G it was 0.00686; in that of C82A A111C A145C C150A U176A, 0.0105; in that of A111C A120C A145C C150U C169A U176C, 0.005.
C82U A111G A120G A145U C150A C169U: the reverse-splicing fitness stood at 0.00646.
In the case of C82U A120C A145G C169U U176G it was 0.00344; in that of C82U A111C C150A C169U U176A, 0.0166.
In the case of C82G A111C A120G A145U C169G it was 0.0132; in that of C82A A111C A120C A145U C150U C169U U176G, 0.00824; in that of C82U A111G A145G C150U C169A, 0.00982.
In the case of C82G A145U C150U C169U U176A it was 0.0118; in that of C82U A111G A120U A145C C169A U176A, 0.00176; in that of C82G A111G A120U A145U C150G C169U U176A, 0.00283.
Regarding C82U A111C A145C C150A, the reverse-splicing fitness was 0.0154.
In the case of C82U A111U A120C A145C C150G C169A U176C it was 0.00591; in that of C82G A120C A145C C169U, 0.0218; in that of C82A A111G A120U C150A U176G, 0.00282.
In the case of A111G A145C C150U C169A U176A it was 0.0101; in that of C82G A111G A145G C150G U176C, 0.026; in that of C82G A111G A120G C169G, 0.0219.
In the case of C82U U176G it was 0.126; in that of C82U A111G A120C A145C C169G U176C, 0.00852; in that of C82U A111C A120C A145C C150G, 0.00813.
As for C82U A111G A145U C150A C169U U176G, the reverse-splicing fitness is 0.00567.
In the case of A111U A120G C150A U176C it was 0.0216; in that of A111G A120C A145C C150U C169U, 0.0786; in that of C82G A111U A120C A145C C150G U176C, 0.00843.
C82G A111G C150U C169A U176C: the reverse-splicing fitness stood at 0.0178.
In the case of C82U A111U A120C C150A it was 0.0106.
Consider C82U A120G A145C C150U C169G U176C, for which the reverse-splicing fitness came to 0.0111.
In the case of C82G A145G C150A C169A U176C it was 0.0238.
Regarding C82G A111G A120G C150U U176A, the reverse-splicing fitness came out at 0.012.
In the case of C82G A111U A120G A145U C150G C169A U176G it was 0.00513; in that of C82G A111G A120G A145U C150A C169A U176G, 0.00495.
In the case of C82A A111U A120C A145C C169G U176C it was 0.0325.
In the case of C82U A120C A145C C150U C169U U176A it was 0.0137; in that of A111C A120C C150A C169U, 0.0222.
Turning to C82A A111G A145C C150G C169A U176A, the reverse-splicing fitness came out at 0.00847.
In the case of C82U A111G A120U A145U C169A it was 0.00249; in that of A145C C150G C169G U176G, 0.00537; in that of C82A A111G A120C A145U C150A C169U, 0.00961.
In the case of A111G A120U A145G U176G it was 0.124; in that of A145U C150A C169U U176A, 0.031; in that of C82U A111C A120U U176C, 0.0103.
In the case of C82U A111U A120U C150G U176G it was 0.00237.
Regarding C82A A111C A145C C150U U176G, the reverse-splicing fitness is 0.00993.
For the variant C82U A111C C150A C169A, the reverse-splicing fitness is 0.00994.
Turning to C82A A111C A120U A145C C150G C169A U176A, the reverse-splicing fitness came out at 0.00353.
For C82A A111G A120U A145C C150U C169G U176A, the reverse-splicing fitness came to 0.00301.
In the case of A120G A145C C150A C169U U176G it was 0.00621; in that of A111U A120U A145C C150A C169U U176G, 0.00241.
In the case of A111G A145C C150G C169A U176C it was 0.00646; in that of C82A A111U A120G C150U C169A U176G, 0.00525; in that of C82G A111G A120C A145U C169G U176G, 0.00477.
In the case of C82A A111C A145G U176G it was 0.017; in that of C82A A111U A120C C150A C169A U176A, 0.0227.
For C82U A111G A120G A145C C150A C169U U176G, the reverse-splicing fitness came out at 0.00373.
In the case of C82G A111C A145U C169A U176A it was 0.0149; in that of C82G A111G A120U A145U C150A, 0.00764.
In the case of C82A A111G A120G A145U C150U C169U U176G it was 0.00555; in that of C82A A111C A120U A145G C150G C169G, 0.00663; in that of A111C A120C A145G C150U C169G, 0.00981.
On to C82U A145C C150A C169G U176C, for which the reverse-splicing fitness worked out at 0.00995.
Consider A120C A145U C150G C169G U176G, for which the reverse-splicing fitness was 0.00367.
In the case of C82A A111U A120C C150U C169A U176G it was 0.00841.
For C82U A111U C150A C169U U176C, the reverse-splicing fitness amounted to 0.0152.
In the case of A111C A120G C150G C169G U176G it was 0.00457; in that of C82U A145C C150A, 0.0351; in that of C82A A111G A120C A145U C150U, 0.0296.
With C82A A111C A145G C150A C169G U176C, the reverse-splicing fitness was found to be 0.0253.
In the case of C82G A111C C169G it was 0.00928; in that of A111C A120C A145U C150G C169G, 0.00671; in that of C82G A111G A120U C169G, 0.00481.
For the variant C82A A120G A145C C150G, the reverse-splicing fitness was determined as 0.0075.
In the case of A120C A145G C150G U176C it was 0.146.
With A111C A120C A145U C150A C169A U176C, the reverse-splicing fitness came out at 0.0085.
In the case of A120G A145G C150U C169G it was 0.502.
